Assay results from patent US7374920B2, “Ginkgo biloba levopimaradiene synthase” (priority 2001, dated 2008).

Test system: EHY18 yeast cells
Test: in vivo expression of GbLS constructs in yeast strain EHY18 that accumulates GGDP, GC quantitation of products
Format: cell-based
Conditions: for diterpene products on expression in EHY18: GC, GC/MS
Protocol: The yeast strain of the copending application employed was EHY18 (Hart, E., 2001) which was further transformed with multiple-copy yeast expression vectors comprising an isolated and purified nucleic acid sequence of GbLS or derivatives thereof, which are described herein under control of the GAL1 inducible promoter. Yeast cells were grown to saturation in 5 mL ScD-Leu-Ura at 30° C. Cells were harvested (1300×g, 2 min, 25° C.) and resuspended in 500 μL sterile Milli-Q H2O (2×). The washed cells were resuspended in 5 mL sterile Milli-Q H2O. An aliquot of the culture (5 μL) was added to a 25 mL Corex tube containing pre-prepared 2× resin and 5 mL ScG-Leu-Ura (4% galactose) and shaken at 30° C. for 6 days. Resin was collected by filtration through a Kontes chromatography column (1.7 cm diameter) and rinsed with dI H2O until eluent was clear. The resin was incubated in 2 mL ethanol for several minutes, eluted, and repeated 2×. The combined eluents were dissolved in approximately 3 mL dI H2O and extracted (3×) with 3 mL hexane. The combined extracts were concentrated under a stream of nitrogen. GC analysis (quantitation extrapolated from 0.2 mg/mL longifolene external standard) indicated the following product profile (obtained from triplicate measurement of three cultures): 0.61±0.20 mg/L levopimaradiene, 0.04±0.01 mg/L abietadiene, 0.15±0.05 mg/L abietatriene, 0.16±0.13 mg/L (+)-copalol, and 1.79±0.90 mg/L geranylgeraniol. GC/MS fragmentation confirmed the identity of each compound.
A large scale culture (1-L) was prepared by growing the yeast cells to saturation in 5 mL ScD-Leu-Ura at 30° C. Cells were harvested (1300×g, 2 min, 25° C.) and resuspended in 500 μL sterile Milli-Q H2O (2×). The washed cells were resuspended in 5 mL sterile Milli-Q H2O. An aliquot of the culture (1 mL) was added to a 2 L flask containing 1-L ScG-Leu-Ura (4% galactose) and 88.27 g resin in 120 mL Milli-Q H2O (pre-prepared). The resin was eluted with ethanol (3×100 mL with 20 min incubation periods), which was subsequently extracted (6×) with hexane. The combined extracts were dried over magnesium sulfate, filtered, and concentrated under reduced pressure. GC analysis (quantitation extrapolated from 0.2 mg/mL longifolene external standard) indicated the following product profile (obtained from triplicate measurement): 0.29±0.04 mg/L levopimaradiene, 0.04±0.02 mg/L abietadiene, 0.13±0.04 mg/L abietatriene, 0.11±0.02 mg/L (+)-copalol, and 0.56±0.03 mg/L geranylgeraniol. GC/MS analyses confirmed the production of the above noted diterpenes, which included hydrocarbons and an alcohol.
Further optimization studies employed the Ser61 construct. Factors influencing diterpene production included induction period and concentration of galactose and resin in the inducing medium.

[1] = EHY18, 6 days, 4% galactose, 0.70 g resin/5 mL culture medium, GC quantitation

Molecule | diterpene production relative to wild-type synthase (EHY18) | net yield of (+)-copalol [1] | net yield of diterpene hydrocarbons [1] | diterpene products on expression in EHY18
Ser^61: Ginkgo biloba levopimaradiene synthase truncated at Ala^60-Ser^61; amino acid sequence SEQ.ID.NO:35 (protein, listed as Ginkgo biloba) MSAAETRPDQLPQEERFVSRLNADYHPAVWKDDFIDSLTSPNSHATSKSSVDETINKRIQTLVKEIQCMFQSMGDGETNPSAYDTAWVARIPSIDGSGAPQFPQTLQWILNNQLPDGSWGEECIFLAYDRVLNTLACLLTLKIWNKGDIQVQKGVEFVRKHMEEMKDEADNHRPSGFEVVFPAMLDEAKSLGLDLPYHLPFISQIHQKRQKKLQKIPLNVLHNHQTALLYSLEGLQDVVDWQEITNLQSRDGSFLSSPASTACVFMHTQNKRCLHFLNFVLSKFGDYVPCHYPLDLFERLWAVDTVERLGIDRYFKKEIKESLDYVYRYWDAERGVGWARCNPIPDVDDTAMGLRILRLHGYNVSSDVLENFRDEKGDFFCFAGQTQIGVTDNLNLYRCSQVCFPGEKIMEEAKTFTTNHLQNALAKNNAFDKWAVKKDLPGEVEYAIKYPWHRSMPRLEARSYIEQFGSNDVWLGKTVYKMLYVSNEKYLELAKLDFNMVQALHQKETQHIVSWWRESGFNDLTFTRQRPVEMYFSVAVSMFEPEFAACRIAYAKTSCLAVILDDLYDTHGSLDDLKLFSEAVRRWDISVLDSVRDNQLKVCFLGLYNTVNGFGKDGLKEQGRDVLGYLRKVWEGLLASYTKEAEWSAAKYVPTFNEYVENAKVSIALATVVLNSIFFTGELLPDYILQQVDLRSKFLHLVSLTGRLINDTKTYQAERNRGELVSSVQCYMRENPECTEEEALSHVYGIIDNALKELNWELANPASNAPLCVRRLLFNTARVMQLFYMYRDGFGISDKEMKDHVSRTLFDPVA | approximately four | ~0.2 mg/L | ~0.8 mg/L | produced (+)-copalol, levopimaradiene, abietadiene, and abietatriene
Ala^2 (protein, listed as Ginkgo biloba) MAGVLFANLPCSLQLSPKVPFRQSTNILIPFHKRSSFGFNAQHCVRSHLRLRWNCVGIHASAAETRPDQLPQEERFVSRLNADYHPAVWKDDFIDSLTSPNSHATSKSSVDETINKRIQTLVKEIQCMFQSMGDGETNPSAYDTAWVARIPSIDGSGAPQFPQTLQWILNNQLPDGSWGEECIFLAYDRVLNTLACLLTLKIWNKGDIQVQKGVEFVRKHMEEMKDEADNHRPSGFEVVFPAMLDEAKSLGLDLPYHLPFISQIHQKRQKKLQKIPLNVLHNHQTALLYSLEGLQDVVDWQEITNLQSRDGSFLSSPASTACVFMHTQNKRCLHFLNFVLSKFGDYVPCHYPLDLFERLWAVDTVERLGIDRYFKKEIKESLDYVYRYWDAERGVGWARCNPIPDVDDTAMGLRILRLHGYNVSSDVLENFRDEKGDFFCFAGQTQIGVTDNLNLYRCSQVCFPGEKIMEEAKTFTTNHLQNALAKNNAFDKWAVKKDLPGEVEYAIKYPWHRSMPRLEARSYIEQFGSNDVWLGKTVYKMLYVSNEKYLELAKLDFNMVQALHQKETQHIVSWWRESGFNDLTFTRQRPVEMYFSVAVSMFEPEFAACRIAYAKTSCLAVILDDLYDTHGSLDDLKLFSEAVRRWDISVLDSVRDNQLKVCFLGLYNTVNGFGKDGLKEQGRDVLGYLRKVWEGLLASYTKEAEWSAAKYVPTFNEYVENAKVSIALATVVLNSIFFTGELLPDYILQQVDLRSKFLHLVSLTGRLINDTKTYQAERNRGELVSSVQCYMRENPECTEEEALSHVYGIIDNALKELNWELANPASNAPLCVRRLLFNTARVMQLFYMYRDGFGISDKEMKDHVSRTLFDPVA |  |  |  | produced (+)-copalol, levopimaradiene, abietadiene, and abietatriene
